Experimental findings from patent US20110172153A1 (GENERAL HOSPITAL, published 2011) are described below.

Square brackets hold non-standard residues; d marks the D form. Ends that are not written are not given here. hArg = N=C(N)NCCCC[C@H](N)C(=O)O; Nle = CCCC[C@H](N)C(=O)O; Aib = CC(C)(N)C(=O)O

Test [1] concerns the target T1, rat parathyroid hormone receptor (PTHR) (rat, UniProt P25961 27-591).
T1 construct: Endogenous in ROS17/2.8 cells (membranes or intact cells); also called rat PTHR; rat PIR
T1 sequence: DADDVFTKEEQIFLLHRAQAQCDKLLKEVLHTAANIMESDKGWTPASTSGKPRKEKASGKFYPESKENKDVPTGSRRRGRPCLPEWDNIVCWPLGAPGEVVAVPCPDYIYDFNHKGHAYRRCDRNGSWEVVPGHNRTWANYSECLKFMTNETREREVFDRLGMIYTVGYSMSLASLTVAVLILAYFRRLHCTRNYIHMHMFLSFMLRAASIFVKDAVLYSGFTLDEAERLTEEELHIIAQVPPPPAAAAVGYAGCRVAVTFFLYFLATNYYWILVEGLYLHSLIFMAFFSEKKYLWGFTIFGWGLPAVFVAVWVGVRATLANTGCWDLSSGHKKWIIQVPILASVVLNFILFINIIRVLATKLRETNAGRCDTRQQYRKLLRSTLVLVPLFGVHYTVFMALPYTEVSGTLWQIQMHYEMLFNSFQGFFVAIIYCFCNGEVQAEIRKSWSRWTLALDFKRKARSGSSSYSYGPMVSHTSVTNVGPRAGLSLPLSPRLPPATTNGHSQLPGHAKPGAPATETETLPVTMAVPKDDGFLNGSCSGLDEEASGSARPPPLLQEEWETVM
Nature of the test: competition radioligand binding, rat PIR R0.

Test [2] concerns the target T1, rat parathyroid hormone receptor (PTHR). Nature of the test: competition radioligand binding, rat PIR RG.
For test [3], the target named is T2, human parathyroid hormone receptor (PTHR) (human, UniProt Q03431 27-593).
T2 construct: Assayed in membranes of HKRK-B7 cells or of transiently transfected COS-7 cells, or on intact HKRK-B7/HKRK-B64/COS-7 cells; RG = co-transfected with negative-dominant Galpha-s; R0 = receptor alone plus GTPgammaS; also called hPTHR; human PTH receptor
T2 sequence: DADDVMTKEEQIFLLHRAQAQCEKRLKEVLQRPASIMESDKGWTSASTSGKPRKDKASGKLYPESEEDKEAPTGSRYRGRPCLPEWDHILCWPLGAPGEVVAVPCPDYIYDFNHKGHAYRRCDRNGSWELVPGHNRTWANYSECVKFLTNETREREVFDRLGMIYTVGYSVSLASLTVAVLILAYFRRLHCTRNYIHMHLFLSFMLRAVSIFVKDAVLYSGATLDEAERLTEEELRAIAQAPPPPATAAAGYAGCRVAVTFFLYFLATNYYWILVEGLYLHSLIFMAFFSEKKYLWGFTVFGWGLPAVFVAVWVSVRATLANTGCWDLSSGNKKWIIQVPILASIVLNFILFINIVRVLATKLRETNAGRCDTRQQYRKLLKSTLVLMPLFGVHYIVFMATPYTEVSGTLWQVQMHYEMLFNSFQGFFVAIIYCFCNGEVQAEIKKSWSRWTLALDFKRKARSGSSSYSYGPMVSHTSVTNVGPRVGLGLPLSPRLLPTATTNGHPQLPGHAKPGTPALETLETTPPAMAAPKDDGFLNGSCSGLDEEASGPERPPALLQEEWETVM
The experiment in a line: ratio of R0 IC50 to RG IC50, hPTHR.

Test [4] concerns the target T2, human parathyroid hormone receptor …. The experiment in a line: competition radioligand binding, hPTHR RG conformation. How it is done:
(§1) Binding Studies. Binding studies were performed using cell membranes as described (Dean et al., Mol Endocrinol 20(4):931-43 (2006)). […] Reactions contained a total membrane protein concentration of 20 to 100 μg/mL, and a total radioactivity concentration of approximately 150,000 cpm/ml. Unlabeled peptide ligands and/or GTPγS (Sigma-Aldrich Inc. St. Louis, Mo.) were added to the reactions as indicated. At the end of the reaction, bound and free radioligand were separated by vacuum filtration using a 96-well vacuum filter plate and vacuum filter apparatus (Multi-Screen system with Durapore HV, […] filters; Millipore Corp., Milford, Mass.); the air-dried filters were then detached from the plate and counted for gamma radioactivity using a gamma counter.
(§2) To assess the capacities of various unlabeled peptide ligands to bind to the G protein-uncoupled and G protein-coupled PTHR conformations (R⁰ and RG, respectively), membranes were prepared from transiently transfected COS-7 cells and the following assay conditions.

Test [5] shares this target. The experiment in a line: competition radioligand binding, hPTHR R0 conformation. How it is done: as §1, §2
Test [6] shares this target. The experiment in a line: competition radioligand binding, human PIR RG. The method, then:
as §1, §2

For test [7] the target is unchanged. Nature of the test: competition radioligand binding, human PIR R0. How it is done:
as §1, §2

Test [8] shares this target. The experiment in a line: ratio of R0 IC50 to RG IC50, human PTH1 receptor.
Test [9] shares this target. The experiment in a line: competition radioligand binding, human PTH1 receptor RG. How it is done:
as §1, §2

Test [10] has the same target. Nature of the test: competition radioligand binding, human PTH1 receptor R0. The method, then:
as §1, §2

For test [11], the target named is T1, rat parathyroid hormone receptor (PTHR). Nature of the test: near-equilibrium radioligand binding, ROS17/2.8 membranes.
The next test addresses PTHR-CFPIC3/YFPCT (human). Nature of the test: cell-based or functional assay.
In test [12] the target is T2, human parathyroid hormone receptor …. Nature of the test: cell-based or functional assay.
For test [13] the target is unchanged. Nature of the test: competition vs 125I-[Aib1,3,M]PTH(1-15), COS-7 membranes hPTHR + GsND (RG). How it is done:
(§3) Radioligand dissociation. These studies were performed as bulk reactions in 15 mL round-bottom polystyrene snap-cap tubes (Falcon) (total reaction volume=5.0 ml). Membranes and radioligand were pre-incubated for 90 minutes to allow complex formation; the dissociation phase was then initiated by the addition of an excess of the unlabeled analog of the radioligand (5×10⁻⁷ M final concentration), with or without GTPγS (5×10⁻⁵ M). Immediately prior to this addition (t=0), and at successive time-points thereafter, 0.2 ml aliquots (30,000 cpm) were withdrawn and immediately processed by vacuum filtration, as described above. Non-specific binding was determined in parallel reaction tubes containing the unlabeled analog of the radioligand (5×10⁻⁷ M) in both the pre-incubation and dissociation phases. The specifically bound radioactivity at each time point was calculated as a percent of the radioactivity specifically bound at t=0. Equilibrium competition binding and GTPγS inhibition. […] Membranes, tracer radioligand, and various concentrations of unlabeled ligands and/or GTPγS were incubated in the wells for 90 minutes, following which, the reaction plates were processed by rapid vacuum filtration to separate bound from free radioligand, as described above. […] For both radioligands, the non-specific binding was determined in reactions containing a saturating concentration of the unlabeled analog of the radioligand. The specifically bound radioactivity was calculated as a percent of the radioactivity specifically bound in the absence of a competing ligand or GTPγS.

For test [14] the target is unchanged. Nature of the test: competition vs 125I-PTH(1-34) + GTPgammaS, COS-7 membranes hPTHR (R0). The method, then:
as §3

For test [15] the target is unchanged. The experiment in a line: cell-based or functional assay. This is another data set of the same source.
Test [16] has the same target. The experiment in a line: ratio of R0 IC50 to RG IC50, hPTHR. The source holds these as a separate data set.
Test [17] shares this target. Nature of the test: cell-based or functional assay. This is another data set of the same source.

One may read the IC50 as the concentration that inhibits the measured activity by half. On to AVSEHQLLHDKGKSIQDERRRAFLHHKIAEI-NH2 (Name as printed (K27)) [E18,A22,K27-PTHrP(1-31)NH], for which the results for the IC50 in test [1] and in test [2] were 54.8 nM and 0.23 nM, respectively.

Regarding AVSEHQLLHDKGKSIQDERRRAFLLKLIAE-NH2 (also called EALK-PTHrP(1-30)) [E18,A22,L25,K26-PTHrP(1-30)NH], the R0/RG selectivity in test [3] worked out at 11200. Moreover, the IC50 in [4] was 0.08 nM; in [5], 945 nM; in test [6], 0.08 nM; in [7] it was 945 nM; in test [1], 76.3 nM; in test [9] it was 0.08 nM. The IC50 in test [10] is 945 nM; in [2] it was 0.21 nM. Further, the R0/RG ratio in test [8] came to 11800.

As for [Aib]V[Aib]EIQL[Nle]HQ[hArg]AKWY-NH2 (also: 125I label, site not given here, Radioligand; tracer of the RG assay) [^125I-[Aib^1,3,M]PTH(1-15)NH2], the binding result in test [11] is on record as “binds”.

In the case of SVSEIQLMHNLGKHLNSMERVEWLRKKLQDVHNF [hPTH(1-34)], in the test with PTHR-CFPIC3/YFPCT, the “t1/2 of the reduction in FRET signal” value was found to be 0.7 s.

B1: [A1,3,23]-PTH(1-34)OH (peptide)
peptide: AVAEIQLMHNLGKHLNSMERVEALRKKLQDVHNF-OH
notes: also called [A^1,A^3,A^23]-PTH(1-34)OH; [A1,3,23]-hPTH(1-34)
B1: in [12], the “cAMP in HKRK-B7 cells, EC50” value was 1.93 nM and the “cAMP in HKRK-B7 cells, Max” value turned out to be 66.6 pm/well. The R0/RG ratio in test [8] turned out to be 4290. In [9], this molecule displayed an IC50 of 0.43 nM. The molecule further returned an IC50 in [10] of 1840 nM.

Consider SVSEHQLMHNLGKHLNSMERVEWLRKKLQDVHNF-NH2 [[His^5]hPTH(1-34)NH2], for which the IC50 in test [13] amounted to 0.76 nM; in test [14], 122 nM. In addition, the “delayed cAMP response 60 minutes after wash-out, % of maximum, HKRK-B64 cells” value in [15] was 34%. In addition, in [16], the “R0:RG” value was 160.

On to AVSEIQLLHDKGKSIQDLRRRFFLHHLIAEIHTAEY-NH2 [[Ile^5,Tyr^36]hPTHrP(1-36)NH2], for which the “t1/2 of the FRET response” value in the test with PTHR-CFPIC3/YFPCT was in the range of 0.5 to 0.7 s.

As for AVSEIQLLHDKGKSIQDLRRRFFLHHLIAEIHTAEY-NH2 (also: 125I label, site not given here, Radioligand) [^125I-[Ile^5,Tyr^36]PTHrP(1-36)NH2], the binding result in test [11] is reported as “binds”.

B2: [Nle^8,21,Tyr^34]rPTH(1-34)NH2 (peptide)
peptide: AVSEIQLXHNLGKHLASVERXQWLRKKLQDVHNY
modifications: Nle at 8 and 21; C-terminal amide
notes: also called [Nle^8,21,Tyr^34]rat(r)PTH(1-34)NH2; control PTH(1-34) analog
B2: in test [15], the “delayed cAMP response 60 minutes after wash-out, % of maximum, HKRK-B64 cells” value turned out to be 47% and the “t1/2 of decay of the cAMP signaling response, HKRK-B7 cells” value is roughly 2 h. In addition, the “R0:RG” value in [16] was determined as 5. In test [17], the “IP in COS-7/hPTHR cells, EC50” value amounted to 18 nM; the “IP in COS-7/hPTHR cells, Emax” value amounted to 2410 cpm/well; the “cAMP in HKRK-B64 cells, EC50” value came out at 5.1 nM; the “cAMP in HKRK-B64 cells, Emax” value worked out at 55 picomole/well.

B3: ^125I-[Nle^8,21,Tyr^34]rPTH(1-34)NH2 (peptide)
peptide: B2 peptide
modifications: 125I label (oxidative chloramine-T procedure); Nle at 8 and 21; C-terminal amide
notes: Radioligand; tracer of the R0 assay
On to B3, for which, in test [11], the binding result is given as “binds”.

B4: [Aib^1,3,Gln^10,Har^11,Ala^12,Trp^14]rPTH(1-14)NH2 (peptide)
peptide: [Aib]V[Aib]EIQLMHQ[hArg]AKW-NH2
modifications: N-terminus assumed
SMILES: CC[C@H](C)[C@H](NC(=O)[C@H](CCC(=O)O)NC(=O)C(C)(C)NC(=O)[C@@H](NC(=O)C(C)(C)N)C(C)C)C(=O)N[C@@H](CCC(N)=O)C(=O)N[C@@H](CC(C)C)C(=O)N[C@@H](CCSC)C(=O)N[C@@H](Cc1c[nH]cn1)C(=O)N[C@@H](CCC(N)=O)C(=O)N[C@@H](CCCCNC(=N)N)C(=O)N[C@@H](C)C(=O)N[C@@H](CCCCN)C(=O)N[C@@H](Cc1c[nH]c2ccccc12)C(N)=O
For B4, in the test with PTHR-CFPIC3/YFPCT, the “t1/2 of the FRET response” value stood at 0.5 s.

B5: A18,22,L25,K26-PTHrP(1-28)NH (peptide)
peptide: AVSEHQLLHDKGKSIQDARRRAFLLKLI-NH2
modifications: not fully specified
notes: also called [Ala^18,22,Leu^25,Lys^26]-PTHrP(1-28); AALK-PTHrP(1-28)
On to B5, for which, in [3], the R0/RG selectivity was found to be 6970. For the same molecule, in test [12], the “cAMP in HKRK-B7 cells, EC50” value stood at 0.52 nM. The “cAMP in HKRK-B7 cells, Max” value in test [12] was found to be 56.4 pm/well. The IC50 in test [4] was determined as 0.04 nM; in test [5], 310 nM; in [6], 0.04 nM; in [7], 310 nM; in test [1], 34.9 nM; in [2], 0.16 nM.
